Target: human CD28 (human, UniProt P10747 19-220)
Experiment: cell-based or functional assay

Luciferase assay (EC50): 1.8 µM
B1: 1h-76 (other)
VL: DIQMTQSPSSLSASVGDRVTITCRASQYIGTRLVWYQQKPGKAPKLLIYQSSLLQSGVPSRFRGSGSGTDFTLTISSLQPEDSATYYCQQTALVPYTFGQGTKVEIKR

From patent US20180142023A1 (Bristol-Myers Squibb, published 2018)
